Patent US20070184519A1 (published 2007)

Assays:
HLA-DR DRB1*0405 (human) = target: T1, HLA-DR DRB1*0405 (human); assay: competition with 125I probe, purified MHC II
T1 chain 1: not shown
T1 chain 2: not shown

DRB1*1101 [1] = target: DRB1*1101 (human, UniProt P01903 26-216, limits assumed); assay: inhibition of 125I-labelled probe peptide binding to purified HLA class II
DRB1*0802 = DRB1*0802 (human, UniProt P01903 26-216, limits assumed); assay: competition vs 125I probe peptide, purified MHC II
DRB1*0301 = DRB1*0301 (human, UniProt P01903 26-216, limits assumed); assay: competition vs 125I probe peptide, purified MHC II
DRB1*0404 = DRB1*0404 (human, UniProt P01903 26-216, limits assumed); assay: competition vs 125I probe peptide, purified MHC II
DRB1*1101 [2] = target: DRB1*1101 (human, UniProt P01903 26-216, limits assumed); assay: competition vs 125I probe peptide, purified MHC II
DRB1*0401 = DRB1*0401 (human, UniProt P01903 26-216, limits assumed); assay: competition vs 125I probe peptide, purified MHC II
DRB1*0101 = DRB1*0101 (human, UniProt P01903 26-216, limits assumed); assay: competition vs 125I probe peptide, purified MHC II
DRB1*1302 [3] = target: DRB1*1302 (human, UniProt P01903 26-216, limits assumed); assay: competition vs 125I probe peptide, purified MHC II
DRB1*0701 = DRB1*0701 (human, UniProt P01903 26-216, limits assumed); assay: competition vs 125I probe peptide, purified MHC II
DRB4*0101 = DRB4*0101 (human, UniProt P01903 26-216, limits assumed); assay: competition vs 125I probe peptide, purified MHC II
DRB1*0901 [4] = target: DRB1*0901 (human, UniProt P01903 26-216, limits assumed); assay: competition vs 125I probe peptide, purified MHC II
DRB1*0405 = DRB1*0405 (human, UniProt P01903 26-216, limits assumed); assay: competition vs 125I probe peptide, purified MHC II
DRB5*0101 = DRB5*0101 (human, UniProt P01903 26-216, limits assumed); assay: competition vs 125I probe peptide, purified MHC II
[5] = target: HLA-DR molecule DRB1*1302 (DR6w19) (human); assay: inhibition of radiolabelled probe peptide binding to purified MHC class II
[6] = target: HLA-DR molecule DRB1*0901 (DR9) (human); assay: as above
[7] = target: HLA-DR molecule DRB4*0101 (DRw53) (human); assay: as above
[8] = target: HLA-DR molecule DRB5*0101 (DR2w2a) (human); assay: as above
[9] = target: HLA-DR molecule DRB1*1101 (DR5w11) (human); assay: as above
HLA-DR DRB4*0101 = HLA-DR DRB4*0101 (human); assay: competition with 125I probe, purified MHC II
HLA-DR DRB1*0401 = HLA-DR DRB1*0401 (human); assay: competition with 125I probe, purified MHC II
HLA-DR DRB3*0101 = HLA-DR DRB3*0101 (human); assay: competition with 125I probe, purified MHC II
HLA-DR DRB1*0101 = HLA-DR DRB1*0101 (human); assay: competition with 125I probe, purified MHC II
HLA-DR DRB1*0802 = HLA-DR DRB1*0802 (human); assay: competition with 125I probe, purified MHC II
DRB1*1302 [10] = target: DRB1*1302 (human, UniProt P01903 26-216, limits assumed); assay: inhibition of 125I-labelled probe peptide binding to purified HLA class II
DRB1*0901 [11] = target: DRB1*0901 (human, UniProt P01903 26-216, limits assumed); assay: as above
[12] = target: HLA-DR molecule DRB1*1101 (human); assay: competition vs 125I probe, purified HLA
[13] = target: HLA-DR molecule DRB4*0101 (human); assay: competition vs 125I probe, purified HLA
[14] = target: HLA-DR molecule DRB5*0101 (human); assay: competition vs 125I probe, purified HLA
[15] = target: HLA-DR molecule DRB1*1302 (human); assay: competition vs 125I probe, purified HLA
[16] = target: HLA-DR molecule DRB1*0404 (human); assay: competition vs 125I probe, purified HLA
[17] = target: HLA-DR molecule DRB1*0101 (human); assay: competition vs 125I probe, purified HLA
[18] = target: HLA-DR molecule DRB1*0301 (human); assay: competition vs 125I probe, purified HLA
[19] = target: HLA-DR molecule DRB1*0802 (human); assay: competition vs 125I probe, purified HLA
[20] = target: HLA-DR molecule DRB1*0401 (human); assay: competition vs 125I probe, purified HLA
[21] = target: HLA-DR molecule DRB1*0405 (human); assay: competition vs 125I probe, purified HLA
[22] = target: HLA-DR molecule DRB1*0701 (human); assay: competition vs 125I probe, purified HLA
[23] = target: HLA-DR molecule DRB1*0901 (human); assay: competition vs 125I probe, purified HLA
HLA-DR DRB5*0101 = HLA-DR DRB5*0101 (human); assay: competition with 125I probe, purified MHC II

B1: HBV Pre S1 21-47 (peptide)
peptide: PLGFFPDHQLDPAFGANSNNPDWDFNP
modifications: not checked
IC50 (HLA-DR DRB1*0405 (human)): 31 nM

B2: DTFRKLFRVYSNFGR (peptide)
peptide: DTFRKLFRVYSNFGR
IC50 (DRB1*1101 [1]): 2.8 nM

B3: DTFRKLDRVYSNFLR (peptide)
peptide: DTFRKLDRVYSNFLR
IC50 (DRB1*0802): 87 nM
IC50 (DRB1*0301): 2810 nM

B4: DTFRKNFRVYSNFLR (peptide)
peptide: DTFRKNFRVYSNFLR
IC50 (DRB1*0404): 922 nM
IC50 (DRB1*1101 [2]): 5 nM
IC50 (DRB1*0401): 91 nM
IC50 (DRB1*0101): 62 nM

B5: DTGRKLFRVYSNFLR (peptide)
peptide: DTGRKLFRVYSNFLR
IC50 (DRB1*0404): 175 nM
IC50 (DRB1*0802): 53 nM
IC50 (DRB1*1302 [3]): 7.5 nM
IC50 (DRB1*0701): 312 nM
IC50 (DRB1*0401): 46 nM

B6: DTPRKLFRVYSNFLR (peptide)
peptide: DTPRKLFRVYSNFLR
IC50 (DRB4*0101): 418 nM
IC50 (DRB1*0901 [4]): 28 nM
IC50 (DRB1*0405): 6.9 nM
IC50 (DRB1*0701): 87 nM
IC50 (DRB1*0401): 40 nM
IC50 (DRB1*0101): 13 nM

B7: DTFRKLFRVYSNFGR (peptide)
peptide: DTFRKLFRVYSNFGR
IC50 (DRB1*0401): 50 nM

B8: DTKRKLFRVYSNFLR (peptide)
peptide: DTKRKLFRVYSNFLR
IC50 (DRB4*0101): 738 nM
IC50 (DRB1*1302 [3]): 4.9 nM
IC50 (DRB1*0101): 13 nM
IC50 (DRB1*0301): 6490 nM

B9: DTFRKQFRVYSNFLR (peptide)
peptide: DTFRKQFRVYSNFLR
IC50 (DRB5*0101): 4.9 nM
IC50 (DRB1*0404): 270 nM
IC50 (DRB1*0802): 81 nM
IC50 (DRB1*0701): 3000 nM

B10: DTFRKLFRVYSNDLR (peptide)
peptide: DTFRKLFRVYSNDLR
IC50 (DRB1*0404): 812 nM
IC50 (DRB1*0405): 487 nM
IC50 (DRB1*0701): 817 nM

B11: EPO 101 analog peptide GLRSLTTLLDALGAQ (SEQ ID NO: 193) (peptide)
peptide: GLRSLTTLLDALGAQ
IC50 [5]: 953 nM
IC50 [6]: 277 nM

B12: EPO 101 analog peptide GLRSLTTLLGALGAQ (SEQ ID NO: 194) (peptide)
peptide: GLRSLTTLLGALGAQ
IC50 [5]: 858 nM
IC50 [7]: 13 nM
IC50 [8]: 294 nM
IC50 [9]: 2.6 nM

B13: EPO 101 analog peptide GLRSLTTRLRALGAQ (SEQ ID NO: 192) (peptide)
peptide: GLRSLTTRLRALGAQ
IC50 [8]: 13 nM
IC50 [9]: 0.79 nM

B14: Torp. Ach Rec. 195-212 (peptide)
peptide: DTPYLDITYHFVMQRLPL
IC50 (HLA-DR DRB4*0101): 261 nM
IC50 (HLA-DR DRB1*0401): 160 nM
IC50 (HLA-DR DRB3*0101): 800 nM
IC50 (HLA-DR DRB1*0101): 385 nM
IC50 (HLA-DR DRB1*0802): 555 nM

B15: DTFRKLFRVYSNDLR (peptide)
peptide: DTFRKLFRVYSNDLR
IC50 (DRB1*1302 [10]): 66 nM
IC50 (DRB1*1101 [1]): 3.6 nM
IC50 (DRB1*0901 [11]): 1640 nM

B16: EPO 101 analog GLRSLGTLLRALGAQ (peptide)
peptide: GLRSLGTLLRALGAQ
IC50 [12]: 1.4 nM
IC50 [13]: 473 nM
IC50 [14]: 13 nM
IC50 [15]: 739 nM
IC50 [16]: 13 nM

B17: EPO 101 analog GLRSLTTLLGALGAQ (peptide)
peptide: GLRSLTTLLGALGAQ
IC50 [17]: 1.3 nM

B18: EPO 101 analog GLRSLTTLARALGAQ (peptide)
peptide: GLRSLTTLARALGAQ
IC50 [12]: 0.93 nM
IC50 [18]: 234 nM
IC50 [15]: 610 nM
IC50 [16]: 13 nM
IC50 [19]: 7.1 nM

B19: EPO 101 analog GLRSLTTLTRALGAQ (peptide)
peptide: GLRSLTTLTRALGAQ
IC50 [12]: 3 nM
IC50 [20]: 394 nM
IC50 [14]: 13 nM

B20: EPO 101 analog GLRSLTTLLDALGAQ (peptide)
peptide: GLRSLTTLLDALGAQ
IC50 [16]: 9.3 nM
IC50 [19]: 240 nM

B21: EPO 101 analog GLRSLTTLPRALGAQ (peptide)
peptide: GLRSLTTLPRALGAQ
IC50 [12]: 0.62 nM
IC50 [13]: 112 nM
IC50 [14]: 2.8 nM
IC50 [16]: 13 nM
IC50 [19]: 7.3 nM
IC50 [21]: 524 nM

B22: EPO 101 analog GLRSLTTRLRALGAQ (peptide)
peptide: GLRSLTTRLRALGAQ
IC50 [20]: 211 nM
IC50 [17]: 2.4 nM
IC50 [22]: 4370 nM

B23: EPO 101 analog GLRSLTTLSRALGAQ (peptide)
peptide: GLRSLTTLSRALGAQ
IC50 [12]: 1.4 nM
IC50 [15]: 440 nM
IC50 [16]: 13 nM
IC50 [23]: 2230 nM
IC50 [21]: 719 nM

B24: EPO 101 analog GLRSLTTLNRALGAQ (peptide)
peptide: GLRSLTTLNRALGAQ
IC50 [12]: 0.97 nM
IC50 [20]: 28 nM
IC50 [13]: 167 nM
IC50 [14]: 0.89 nM
IC50 [23]: 337 nM

B25: NP7 (TPO Y535-551) (peptide)
peptide: YLDPLIRGLLARPAKLQV
IC50 (HLA-DR DRB5*0101): 476 nM
IC50 (HLA-DR DRB4*0101): 341 nM
IC50 (HLA-DR DRB1*0401): 687 nM
IC50 (HLA-DR DRB1*0101): 1.6 nM
